We go through 8 molecules from patent publication US20250171562A1.

B1: CIgG4E3A1(G4S)3 (Fc fusion)
chain 1: GPPCPPCPAPEFLGGPSVFLFPPKPKDTLMISRTPEVTCVVVDVSQEDPEVQFNWYVDGVEVHNAKTKPREEQFNSTYRVVSVLTVLHQDWLNGKEYKCKVSNKGLPSSIEKTISKAKGQPREPQVYTLPPCQEEMTKNQVSLWCLVKGFYPSDIAVEWESNGQPENNYKTTPPVLDSDGSFFLYSRLTVDKSRWQEGNVFSCSVMHEALHNHYTQKSLSLSLGKGGGGSGGGGSGGGGSDVQLQESGGGLVQAGGSLRLACAASGRTLSSYVVSWFRQAPGKERKFVAAITWSGLSTTYLDSVQGRFTISRDNTKDTVYLQMNSLKPQDTAIYYCAAGPNIPSILRTRESEYAYWGQGTQVTVS
chain 2: GPPCPPCPAPEFLGGPSVFLFPPKPKDTLMISRTPEVTCVVVDVSQEDPEVQFNWYVDGVEVHNAKTKPREEQFNSTYRVVSVLTVLHQDWLNGKEYKCKVSNKGLPSSIEKTISKAKGQPREPQVCTLPPSQEEMTKNQVSLSCAVKGFYPSDIAVEWESNGQPENNYKTTPPVLDSDGSFFLVSRLTVDKSRWQEGNVFSCSVMHEALHNHYTQKSLSLSLGKGGGGSGGGGSGGGGSEVQLLESGGGLVQPGGSLRLSCAASGFTFGNYDMAWVRQAPGKRPEWVSSIDTGGDITHYADSVKGRFTISRDNAKNTLYLQMNSLRPEDTAVYWCATDEEYALGPNEFDYYGQGTLVTVSS
B2: NIgG4E4A1(G4S)3 (Fc fusion)
chain 1: DVQLQESGGGLVQPGGSLRLSCAASGFRFSNYAMRWYRQAPGKEREFVARISSTGFITRYTASVRDRFTISRDNDKNMMYLQLNKLTPQDTAHYYCNAESTDYWGQGTQVTVSGGGGSGGGGSGGGGSGPPCPPCPAPEFLGGPSVFLFPPKPKDTLMISRTPEVTCVVVDVSQEDPEVQFNWYVDGVEVHNAKTKPREEQFNSTYRVVSVLTVLHQDWLNGKEYKCKVSNKGLPSSIEKTISKAKGQPREPQVYTLPPCQEEMTKNQVSLWCLVKGFYPSDIAVEWESNGQPENNYKTTPPVLDSDGSFFLYSRLTVDKSRWQEGNVFSCSVMHEALHNHYTQKSLSLSLGK
chain 2: EVQLLESGGGLVQPGGSLRLSCAASGFTFGNYDMAWVRQAPGKRPEWVSSIDTGGDITHYADSVKGRFTISRDNAKNTLYLQMNSLRPEDTAVYWCATDEEYALGPNEFDYYGQGTLVTVSSGGGGSGGGGSGGGGSGPPCPPCPAPEFLGGPSVFLFPPKPKDTLMISRTPEVTCVVVDVSQEDPEVQFNWYVDGVEVHNAKTKPREEQFNSTYRVVSVLTVLHQDWLNGKEYKCKVSNKGLPSSIEKTISKAKGQPREPQVCTLPPSQEEMTKNQVSLSCAVKGFYPSDIAVEWESNGQPENNYKTTPPVLDSDGSFFLVSRLTVDKSRWQEGNVFSCSVMHEALHNHYTQKSLSLSLGK
B3: NIgG4E4A1(G4S)1 (Fc fusion)
chain 1: DVQLQESGGGLVQPGGSLRLSCAASGFRFSNYAMRWYRQAPGKEREFVARISSTGFITRYTASVRDRFTISRDNDKNMMYLQLNKLTPQDTAHYYCNAESTDYWGQGTQVTVSGGGGSGPPCPPCPAPEFLGGPSVFLFPPKPKDTLMISRTPEVTCVVVDVSQEDPEVQFNWYVDGVEVHNAKTKPREEQFNSTYRVVSVLTVLHQDWLNGKEYKCKVSNKGLPSSIEKTISKAKGQPREPQVYTLPPCQEEMTKNQVSLWCLVKGFYPSDIAVEWESNGQPENNYKTTPPVLDSDGSFFLYSRLTVDKSRWQEGNVFSCSVMHEALHNHYTQKSLSLSLGK
chain 2: EVQLLESGGGLVQPGGSLRLSCAASGFTFGNYDMAWVRQAPGKRPEWVSSIDTGGDITHYADSVKGRFTISRDNAKNTLYLQMNSLRPEDTAVYWCATDEEYALGPNEFDYYGQGTLVTVSSGGGGSGPPCPPCPAPEFLGGPSVFLFPPKPKDTLMISRTPEVTCVVVDVSQEDPEVQFNWYVDGVEVHNAKTKPREEQFNSTYRVVSVLTVLHQDWLNGKEYKCKVSNKGLPSSIEKTISKAKGQPREPQVCTLPPSQEEMTKNQVSLSCAVKGFYPSDIAVEWESNGQPENNYKTTPPVLDSDGSFFLVSRLTVDKSRWQEGNVFSCSVMHEALHNHYTQKSLSLSLGK
B4: CIgG4E3A1(G4S)1 (Fc fusion)
chain 1: GPPCPPCPAPEFLGGPSVFLFPPKPKDTLMISRTPEVTCVVVDVSQEDPEVQFNWYVDGVEVHNAKTKPREEQFNSTYRVVSVLTVLHQDWLNGKEYKCKVSNKGLPSSIEKTISKAKGQPREPQVYTLPPCQEEMTKNQVSLWCLVKGFYPSDIAVEWESNGQPENNYKTTPPVLDSDGSFFLYSRLTVDKSRWQEGNVFSCSVMHEALHNHYTQKSLSLSLGKGGGGSDVQLQESGGGLVQAGGSLRLACAASGRTLSSYVVSWFRQAPGKERKFVAAITWSGLSTTYLDSVQGRFTISRDNTKDTVYLQMNSLKPQDTAIYYCAAGPNIPSILRTRESEYAYWGQGTQVTVS
chain 2: GPPCPPCPAPEFLGGPSVFLFPPKPKDTLMISRTPEVTCVVVDVSQEDPEVQFNWYVDGVEVHNAKTKPREEQFNSTYRVVSVLTVLHQDWLNGKEYKCKVSNKGLPSSIEKTISKAKGQPREPQVCTLPPSQEEMTKNQVSLSCAVKGFYPSDIAVEWESNGQPENNYKTTPPVLDSDGSFFLVSRLTVDKSRWQEGNVFSCSVMHEALHNHYTQKSLSLSLGKGGGGSEVQLLESGGGLVQPGGSLRLSCAASGFTFGNYDMAWVRQAPGKRPEWVSSIDTGGDITHYADSVKGRFTISRDNAKNTLYLQMNSLRPEDTAVYWCATDEEYALGPNEFDYYGQGTLVTVSS
B5: NIgG4E4A1(G4S)2 (Fc fusion)
chain 1: DVQLQESGGGLVQPGGSLRLSCAASGFRFSNYAMRWYRQAPGKEREFVARISSTGFITRYTASVRDRFTISRDNDKNMMYLQLNKLTPQDTAHYYCNAESTDYWGQGTQVTVSGGGGSGGGGSGPPCPPCPAPEFLGGPSVFLFPPKPKDTLMISRTPEVTCVVVDVSQEDPEVQFNWYVDGVEVHNAKTKPREEQFNSTYRVVSVLTVLHQDWLNGKEYKCKVSNKGLPSSIEKTISKAKGQPREPQVYTLPPCQEEMTKNQVSLWCLVKGFYPSDIAVEWESNGQPENNYKTTPPVLDSDGSFFLYSRLTVDKSRWQEGNVFSCSVMHEALHNHYTQKSLSLSLGK
chain 2: EVQLLESGGGLVQPGGSLRLSCAASGFTFGNYDMAWVRQAPGKRPEWVSSIDTGGDITHYADSVKGRFTISRDNAKNTLYLQMNSLRPEDTAVYWCATDEEYALGPNEFDYYGQGTLVTVSSGGGGSGGGGSGPPCPPCPAPEFLGGPSVFLFPPKPKDTLMISRTPEVTCVVVDVSQEDPEVQFNWYVDGVEVHNAKTKPREEQFNSTYRVVSVLTVLHQDWLNGKEYKCKVSNKGLPSSIEKTISKAKGQPREPQVCTLPPSQEEMTKNQVSLSCAVKGFYPSDIAVEWESNGQPENNYKTTPPVLDSDGSFFLVSRLTVDKSRWQEGNVFSCSVMHEALHNHYTQKSLSLSLGK
B6: NIgG4E4A1(RS) (Fc fusion)
chain 1: DVQLQESGGGLVQPGGSLRLSCAASGFRFSNYAMRWYRQAPGKEREFVARISSTGFITRYTASVRDRFTISRDNDKNMMYLQLNKLTPQDTAHYYCNAESTDYWGQGTQVTVSRSGPPCPPCPAPEFLGGPSVFLFPPKPKDTLMISRTPEVTCVVVDVSQEDPEVQFNWYVDGVEVHNAKTKPREEQFNSTYRVVSVLTVLHQDWLNGKEYKCKVSNKGLPSSIEKTISKAKGQPREPQVYTLPPCQEEMTKNQVSLWCLVKGFYPSDIAVEWESNGQPENNYKTTPPVLDSDGSFFLYSRLTVDKSRWQEGNVFSCSVMHEALHNHYTQKSLSLSLGK
chain 2: EVQLLESGGGLVQPGGSLRLSCAASGFTFGNYDMAWVRQAPGKRPEWVSSIDTGGDITHYADSVKGRFTISRDNAKNTLYLQMNSLRPEDTAVYWCATDEEYALGPNEFDYYGQGTLVTVSSRSGPPCPPCPAPEFLGGPSVFLFPPKPKDTLMISRTPEVTCVVVDVSQEDPEVQFNWYVDGVEVHNAKTKPREEQFNSTYRVVSVLTVLHQDWLNGKEYKCKVSNKGLPSSIEKTISKAKGQPREPQVCTLPPSQEEMTKNQVSLSCAVKGFYPSDIAVEWESNGQPENNYKTTPPVLDSDGSFFLVSRLTVDKSRWQEGNVFSCSVMHEALHNHYTQKSLSLSLGK
B7: CIgG4E4A1(RS) (Fc fusion)
chain 1: GPPCPPCPAPEFLGGPSVFLFPPKPKDTLMISRTPEVTCVVVDVSQEDPEVQFNWYVDGVEVHNAKTKPREEQFNSTYRVVSVLTVLHQDWLNGKEYKCKVSNKGLPSSIEKTISKAKGQPREPQVYTLPPCQEEMTKNQVSLWCLVKGFYPSDIAVEWESNGQPENNYKTTPPVLDSDGSFFLYSRLTVDKSRWQEGNVFSCSVMHEALHNHYTQKSLSLSLGKRSDVQLQESGGGLVQPGGSLRLSCAASGFRFSNYAMRWYRQAPGKEREFVARISSTGFITRYTASVRDRFTISRDNDKNMMYLQLNKLTPQDTAHYYCNAESTDYWGQGTQVTVS
chain 2: GPPCPPCPAPEFLGGPSVFLFPPKPKDTLMISRTPEVTCVVVDVSQEDPEVQFNWYVDGVEVHNAKTKPREEQFNSTYRVVSVLTVLHQDWLNGKEYKCKVSNKGLPSSIEKTISKAKGQPREPQVCTLPPSQEEMTKNQVSLSCAVKGFYPSDIAVEWESNGQPENNYKTTPPVLDSDGSFFLVSRLTVDKSRWQEGNVFSCSVMHEALHNHYTQKSLSLSLGKRSEVQLLESGGGLVQPGGSLRLSCAASGFTFGNYDMAWVRQAPGKRPEWVSSIDTGGDITHYADSVKGRFTISRDNAKNTLYLQMNSLRPEDTAVYWCATDEEYALGPNEFDYYGQGTLVTVSS
B8: CIgG4E3A1(G4S)2 (Fc fusion)
chain 1: GPPCPPCPAPEFLGGPSVFLFPPKPKDTLMISRTPEVTCVVVDVSQEDPEVQFNWYVDGVEVHNAKTKPREEQFNSTYRVVSVLTVLHQDWLNGKEYKCKVSNKGLPSSIEKTISKAKGQPREPQVYTLPPCQEEMTKNQVSLWCLVKGFYPSDIAVEWESNGQPENNYKTTPPVLDSDGSFFLYSRLTVDKSRWQEGNVFSCSVMHEALHNHYTQKSLSLSLGKGGGGSGGGGSDVQLQESGGGLVQAGGSLRLACAASGRTLSSYVVSWFRQAPGKERKFVAAITWSGLSTTYLDSVQGRFTISRDNTKDTVYLQMNSLKPQDTAIYYCAAGPNIPSILRTRESEYAYWGQGTQVTVS
chain 2: GPPCPPCPAPEFLGGPSVFLFPPKPKDTLMISRTPEVTCVVVDVSQEDPEVQFNWYVDGVEVHNAKTKPREEQFNSTYRVVSVLTVLHQDWLNGKEYKCKVSNKGLPSSIEKTISKAKGQPREPQVCTLPPSQEEMTKNQVSLSCAVKGFYPSDIAVEWESNGQPENNYKTTPPVLDSDGSFFLVSRLTVDKSRWQEGNVFSCSVMHEALHNHYTQKSLSLSLGKGGGGSGGGGSEVQLLESGGGLVQPGGSLRLSCAASGFTFGNYDMAWVRQAPGKRPEWVSSIDTGGDITHYADSVKGRFTISRDNAKNTLYLQMNSLRPEDTAVYWCATDEEYALGPNEFDYYGQGTLVTVSS

This assay deals with mixture of three Der p 2 specific recombinant human IgE clones H10, H12, P4E (human) (UniProt P01854). The assay is described as follows: RBL-SX38 IgE displacement, FACS.
Chain of mixture of three Der p 2 specific recombinant human IgE clones H10, H12, P4E (human) (P01854 other isoform, or with tags, fused parts or gaps): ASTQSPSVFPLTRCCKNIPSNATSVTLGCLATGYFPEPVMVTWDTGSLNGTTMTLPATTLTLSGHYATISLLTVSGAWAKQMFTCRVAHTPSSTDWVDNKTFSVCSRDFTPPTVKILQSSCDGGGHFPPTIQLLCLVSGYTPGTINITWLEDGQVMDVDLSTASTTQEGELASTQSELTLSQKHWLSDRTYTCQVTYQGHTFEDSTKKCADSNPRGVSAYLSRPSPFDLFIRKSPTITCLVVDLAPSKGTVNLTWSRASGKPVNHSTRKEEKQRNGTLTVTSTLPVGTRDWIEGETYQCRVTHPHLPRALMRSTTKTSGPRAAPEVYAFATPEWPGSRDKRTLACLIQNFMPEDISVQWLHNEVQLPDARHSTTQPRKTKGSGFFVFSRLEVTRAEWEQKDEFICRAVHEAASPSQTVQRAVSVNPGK
Turning to B1, the EC50 (usually the concentration needed to bring the measured effect to its halfway point) was 162 nM and the Max effect/effect 1 µM amounted to 73%.

Turning to B2, the EC50 stood at 36 nM and the Max effect/effect 1 µM came to 92%.

Consider B3, for which the EC50 came out at 17 nM and the Max effect/effect 1 µM turned out to be 97%.

In the case of B4, the EC50 was 277 nM and the Max effect/effect 1 µM stood at 76%.

Regarding B5, the EC50 was found to be 16.4 nM and the Max effect/effect 1 µM is 98%.

As for B6, the EC50 was found to be 6.2 nM and the Max effect/effect 1 µM was determined as 90%.

Consider B7, for which the Max effect/effect 1 µM turned out to be 0%.

For B8, the EC50 is 172 nM and the Max effect/effect 1 µM came out at 94%.
